The supplement of paper PMC10567573

B1: POLD4 (parent)
chain: ITDSYPVVKRREGPAGHSKGELAP

Variants of: B1
Assay: protein stability index of a GFP-peptide fusion (GPS, HEK-293T) (PSI 1-6); higher = more stable
Details: c terminus: a fixed tail appended
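Further: lentivirally expressed fusions sorted by FACS into six bins by GFP to DsRed ratio, PSI derived from sequencing read proportions per bin multiplied by bin number.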

First: ITDSYPVVKRREGPAGHSKGERAP [L22R]
Second: ITDSYPVVKRREGPAGHSKGEEAP [L22E]
The protein stability index of the first is lower: 2.57 for the first, 3.94 for the second.

First: ITDSYPVVKRREGPAGHSKGEPAP [L22P]
Second: ITDSYPVVKRREGPAGHSKGEIAP [L22I]
The protein stability index of the first is higher: 3.31 for the first, 3.1 for the second.

First: ITDSYPVVKRREGPAGHSKGESAP [L22S]
Second: ITDSYPVVKRREGPAGHSKGEMAP [L22M]
The protein stability index of the first is higher: 3.27 for the first, 3.21 for the second.

Compared with ITDSYPVVKRREGPAGHSKGEVAP [L22V], ITDSYPVVKRREGPAGHSKGEWAP [L22W] is lower in protein stability index: 3.42 for the first, 3.04 for the second.

First: ITDSYPVVKRREGPAGHSKGEYAP [L22Y]
Second: ITDSYPVVKRREGPAGHSKGEDAP [L22D]
The protein stability index of the first is lower: 2.52 for the first, 3.81 for the second.

Compared with ITDSYPVVKRREGPAGHSKGEQAP [L22Q], ITDSYPVVKRREGPAGHSKGEKAP [L22K] is lower in protein stability index: 3.89 for the first, 3.71 for the second.

First: ITDSYPVVKRREGPAGHSKGENAP [L22N]
Second: ITDSYPVVKRREGPAGHSKGEAAP [L22A]
The protein stability index of the first is lower: 3.31 for the first, 3.62 for the second.

Going from ITDSYPVVKRREGPAGHSKGECAP [L22C] to ITDSYPVVKRREGPAGHSKGEGAP [L22G], the protein stability index falls from 3.26 to 2.91.

Compared with ITDSYPVVKRREGPAGHSKGETAP [L22T], ITDSYPVVKRREGPAGHSKGEFAP [L22F] is higher in protein stability index: 3.21 for the first, 3.27 for the second.

Going from ITDSYPVVKRREGPAGHSKGEHAP [L22H] to ITDSYPVVKRREGPAGHEKGELAP [S18E], the protein stability index rises from 3.2 to 3.26.

First: ITDSYPVVKRREGPAGHFKGELAP [S18F]
Second: ITDSYPVVKRREGPAGHTKGELAP [S18T]
The protein stability index of the first is higher: 2.91 for the first, 2.87 for the second.

First: ITDSYPVVKRREGPAGHQKGELAP [S18Q]
Second: ITDSYPVVKRREGPAGHKKGELAP [S18K]
The protein stability index of the first is higher: 3.65 for the first, 3.02 for the second.

Compared with ITDSYPVVKRREGPAGHAKGELAP [S18A], ITDSYPVVKRREGPAGHVKGELAP [S18V] is lower in protein stability index: 3.01 for the first, 2.1 for the second.

Going from ITDSYPVVKRREGPAGHYKGELAP [S18Y] to ITDSYPVVKRREGPAGHPKGELAP [S18P], the protein stability index rises from 2.46 to 2.84.

Going from ITDSYPVVKRREGPAGHGKGELAP [S18G] to ITDSYPVVKRREGPAGHMKGELAP [S18M], the protein stability index falls from 3.94 to 2.68.

Going from ITDSYPVVKRREGPAGHDKGELAP [S18D] to ITDSYPVVKRREGPAGHLKGELAP [S18L], the protein stability index falls from 4.01 to 2.91.

Going from ITDSYPVVKRREGPAGHCKGELAP [S18C] to ITDSYPVVKRREGPAGHWKGELAP [S18W], the protein stability index falls from 3.17 to 2.8.

Compared with ITDSYPVVKRREGPAGHIKGELAP [S18I], ITDSYPVVKRREGPAGHHKGELAP [S18H] is lower in protein stability index: 3.44 for the first, 3.35 for the second.

Going from ITDSYPVVKRREGPAGHRKGELAP [S18R] to ITDSYPVVKRREGPAGHNKGELAP [S18N], the protein stability index falls from 3.14 to 2.22.

Compared with ITDSYPVVKRREGPAGSSKGELAP [H17S], ITDSYPVVKRREGPAGDSKGELAP [H17D] is lower in protein stability index: 3.78 for the first, 2.31 for the second.

Going from ITDSYPVVKRREGPAGTSKGELAP [H17T] to ITDSYPVVKRREGPAGESKGELAP [H17E], the protein stability index rises from 3.91 to 4.36.

Compared with ITDSYPVVKRREGPAGRSKGELAP [H17R], ITDSYPVVKRREGPAGPSKGELAP [H17P] is lower in protein stability index: 3.35 for the first, 2.5 for the second.

First: ITDSYPVVKRREGPAGCSKGELAP [H17C]
Second: ITDSYPVVKRREGPAGYSKGELAP [H17Y]
The protein stability index of the first is lower: 2.06 for the first, 2.66 for the second.

Compared with ITDSYPVVKRREGPAGQSKGELAP [H17Q], ITDSYPVVKRREGPAGISKGELAP [H17I] is lower in protein stability index: 3.51 for the first, 3.49 for the second.

Going from ITDSYPVVKRREGPAGLSKGELAP [H17L] to ITDSYPVVKRREGPAGFSKGELAP [H17F], the protein stability index falls from 3.49 to 3.01.

Going from ITDSYPVVKRREGPAGNSKGELAP [H17N] to ITDSYPVVKRREGPAGKSKGELAP [H17K], the protein stability index rises from 3.54 to 4.05.

Going from ITDSYPVVKRREGPAGVSKGELAP [H17V] to ITDSYPVVKRREGPAGHSKFELAP [G20F], the protein stability index falls from 3.2 to 2.81.

Going from ITDSYPVVKRREGPAGHSKHELAP [G20H] to ITDSYPVVKRREGPAGHSKEELAP [G20E], the protein stability index rises from 2.22 to 2.93.

Going from ITDSYPVVKRREGPAGHSKVELAP [G20V] to ITDSYPVVKRREGPAGHSKCELAP [G20C], the protein stability index rises from 3.07 to 3.79.

Compared with ITDSYPVVKRREGPAGHSKAELAP [G20A], ITDSYPVVKRREGPAGHSKSELAP [G20S] is lower in protein stability index: 3.06 for the first, 2.58 for the second.

Compared with ITDSYPVVKRREGPAGHSKTELAP [G20T], ITDSYPVVKRREGPAGHSKWELAP [G20W] is higher in protein stability index: 2.67 for the first, 2.83 for the second.

First: ITDSYPVVKRREGPAGHSKQELAP [G20Q]
Second: ITDSYPVVKRREGPAGHSKKELAP [G20K]
The protein stability index of the first is lower: 2.41 for the first, 2.62 for the second.

Going from ITDSYPVVKRREGPAGHSKMELAP [G20M] to ITDSYPVVKRREGPAGHSKPELAP [G20P], the protein stability index rises from 3.49 to 4.

Going from ITDSYPVVKRREGPAGHSKIELAP [G20I] to ITDSYPVVKRREGPAGHSKDELAP [G20D], the protein stability index rises from 2.99 to 3.55.

Going from ITDSYPVVKRREGPAGHSKNELAP [G20N] to ITDSYPVVKRREGPAGHSKLELAP [G20L], the protein stability index falls from 4.09 to 3.11.

Compared with ITDSYPVVKRREGPAGHSKYELAP [G20Y], ITDSYPVVKRREGPAGHSKGNLAP [E21N] is higher in protein stability index: 2.92 for the first, 3.1 for the second.

Compared with ITDSYPVVKRREGPAGHSKGTLAP [E21T], ITDSYPVVKRREGPAGHSKGPLAP [E21P] is higher in protein stability index: 2.75 for the first, 4.46 for the second.

Compared with ITDSYPVVKRREGPAGHSKGFLAP [E21F], ITDSYPVVKRREGPAGHSKGQLAP [E21Q] is higher in protein stability index: 2.64 for the first, 4.12 for the second.

Compared with ITDSYPVVKRREGPAGHSKGDLAP [E21D], ITDSYPVVKRREGPAGHSKGLLAP [E21L] is lower in protein stability index: 3.37 for the first, 2.85 for the second.

First: ITDSYPVVKRREGPAGHSKGCLAP [E21C]
Second: ITDSYPVVKRREGPAGHSKGRLAP [E21R]
The protein stability index of the first is higher: 3.14 for the first, 2.13 for the second.

Going from ITDSYPVVKRREGPAGHSKGGLAP [E21G] to ITDSYPVVKRREGPAGHSKGVLAP [E21V], the protein stability index falls from 3.23 to 3.03.

First: ITDSYPVVKRREGPAGHSKGWLAP [E21W]
Second: ITDSYPVVKRREGPAGHSKGILAP [E21I]
The protein stability index of the first is lower: 2.84 for the first, 2.96 for the second.

Going from ITDSYPVVKRREGPAGHSKGSLAP [E21S] to ITDSYPVVKRREGPAGHSKGKLAP [E21K], the protein stability index rises from 2.89 to 3.

Compared with ITDSYPVVKRREGPAGHSKGHLAP [E21H], ITDSYPVVKRREGPAGHSKGMLAP [E21M] is lower in protein stability index: 3.23 for the first, 2.6 for the second.

First: ITDSYPVVKRREGPAGHSKGELGP [A23G]
Second: ITDSYPVVKRREGPAGHSKGELQP [A23Q]
The protein stability index of the first is lower: 2.68 for the first, 3.31 for the second.

Compared with ITDSYPVVKRREGPAGHSKGELYP [A23Y], ITDSYPVVKRREGPAGHSKGELDP [A23D] is lower in protein stability index: 3.21 for the first, 2.69 for the second.

Compared with ITDSYPVVKRREGPAGHSKGELTP [A23T], ITDSYPVVKRREGPAGHSKGELIP [A23I] is higher in protein stability index: 2.68 for the first, 3.24 for the second.
